Common to all, as to assay: PiPER pyrophosphate assay kit, released phosphate
Conditions in all cases: 1 μg purified protein; SE of three replicates

Substrate in data set [1]: Nc1ccn([C@@H]2O[C@H](COP(=O)(O)OP(=O)(O)OP(=O)(O)O)[C@@H](O)[C@H]2O)c(=O)n1
The data set is classed as biochemical, Synechococcus phage S-PM2. An excerpt:
(§1) PiPER pyrophosphate assay kit, released phosphate on cyanophage S-PM2 MazG (viral MazG)

Substrate in data set [2]: Nc1nc(O)nc2c1ncn2[C@H]1C[C@H](O)[C@@H](COP(=O)(O)OP(=O)(O)OP(=O)(O)O)O1
The data set is classed as biochemical, Synechococcus phage S-PM2.
Source text: as §1

Substrate in data set [3]: O=c1ccn([C@@H]2O[C@H](COP(=O)(O)OP(=O)(O)OP(=O)(O)O)[C@@H](O)[C@H]2O)c(=O)[nH]1
The data set is classed as biochemical, Synechococcus phage S-PM2.
Source text: as §1

Substrate in data set [4]: Nc1nc2c(ncn2[C@H]2C[C@H](O)[C@@H](COP(=O)(O)OP(=O)(O)OP(=O)(O)O)O2)c(=O)[nH]1
The data set is classed as biochemical, Synechococcus phage S-PM2.
Source text: as §1

Substrate in data set [5]: O=c1ccn([C@H]2C[C@H](O)[C@@H](COP(=O)(O)OP(=O)(O)OP(=O)(O)O)O2)c(=O)[nH]1
The data set is classed as biochemical, Synechococcus phage S-PM2.
Source text: as §1

Substrate in data set [6]: Nc1ccn([C@H]2C[C@H](O)[C@@H](COP(=O)(O)OP(=O)(O)OP(=O)(O)O)O2)c(=O)n1
The data set is classed as biochemical, Synechococcus phage S-PM2.
Source text: as §1

Substrate in data set [7]: Nc1ncnc2c1ncn2[C@H]1C[C@H](O)[C@@H](COP(=O)(O)OP(=O)(O)OP(=O)(O)O)O1
The data set is classed as biochemical, Synechococcus phage S-PM2.
Source text: as §1

Substrate in data set [8]: Cc1cn([C@H]2C[C@H](O)[C@@H](COP(=O)(O)OP(=O)(O)OP(=O)(O)O)O2)c(=O)[nH]c1=O
The data set is classed as biochemical, Synechococcus phage S-PM2.
Source text: as §1

Substrate in data set [9]: Nc1ncnc2c1ncn2[C@@H]1O[C@H](COP(=O)(O)OP(=O)(O)OP(=O)(O)O)[C@@H](O)[C@H]1O
The data set is classed as biochemical, Synechococcus phage S-PM2.
Source text: as §1

Substrate in data set [10]: Nc1ccn([C@@H]2O[C@H](COP(=O)(O)OP(=O)(O)OP(=O)(O)O)[C@@H](O)[C@H]2O)c(=O)n1
The data set is classed as biochemical, Synechococcus sp. WH 7803. The source says: (§2) PiPER pyrophosphate assay kit, released phosphate on Synechococcus sp. WH7803 'large' MazG (Syn MazG)

Substrate in data set [11]: O=c1ccn([C@@H]2O[C@H](COP(=O)(O)OP(=O)(O)OP(=O)(O)O)[C@@H](O)[C@H]2O)c(=O)[nH]1
The data set is classed as biochemical, Synechococcus sp. WH 7803.
Source text: as §2

Substrate in data set [12]: Nc1nc2c(ncn2[C@H]2C[C@H](O)[C@@H](COP(=O)(O)OP(=O)(O)OP(=O)(O)O)O2)c(=O)[nH]1
The data set is classed as biochemical, Synechococcus sp. WH 7803.
Source text: as §2

Substrate in data set [13]: Nc1nc2c(ncn2[C@@H]2O[C@H](COP(=O)(O)OP(=O)(O)OP(=O)(O)O)[C@@H](O)[C@H]2O)c(=O)[nH]1
The data set is classed as biochemical, Synechococcus sp. WH 7803.
Source text: as §2

Substrate in data set [14]: Nc1ccn([C@H]2C[C@H](O)[C@@H](COP(=O)(O)OP(=O)(O)OP(=O)(O)O)O2)c(=O)n1
The data set is classed as biochemical, Synechococcus sp. WH 7803.
Source text: as §2

Substrate in data set [15]: Nc1ncnc2c1ncn2[C@H]1C[C@H](O)[C@@H](COP(=O)(O)OP(=O)(O)OP(=O)(O)O)O1
The data set is classed as biochemical, Synechococcus sp. WH 7803.
Source text: as §2

Substrate in data set [16]: Nc1ncnc2c1ncn2[C@@H]1O[C@H](COP(=O)(O)OP(=O)(O)OP(=O)(O)O)[C@@H](O)[C@H]1O
The data set is classed as biochemical, Synechococcus sp. WH 7803.
Source text: as §2

B1: cyanophage S-PM2 MazG (viral MazG) (Synechococcus phage S-PM2) (protein)
chain: MSKVNFERYQEFVSEVTSDASTNFVDFADRIGELDREGANIERLLTAGVGINAEGGEFLEIIKKMVFQGKPWNRDNREHLIIELGDIMWYVAQACIALGVSFDDVISGNVKKLEKRYPGGEFDVFYSENRSADDR
notes: recombinant, over-expressed in E. coli, purified by imidazole elution (tag details only in supplement); single MazG domain
As to B1, the Km in [1] was 0.85 (±0.11) mM; in data set [2] it was 4.86 (±1.13) mM; in [3] it was 0.6 (±0.37) mM; in data set [4] it was 0.14 (±0.01) mM; in data set [5], 3.24 (±1.55) mM; in data set [6], 1.16 (±0.04) mM. For the same protein, the Km in data set [7] is recorded as 1.2 (±0.21) mM; in data set [8], 1.23 (±0.06) mM; in data set [9], 1.43 (±0.36) mM. The Vmax amounted to 2.51 µmol/min/mg in data set [1]; 1.65 µmol/min/mg in data set [2]; 3.31 µmol/min/mg in [3]; 10.3 µmol/min/mg in [4]; 4.22 µmol/min/mg in data set [5]; 8.86 µmol/min/mg in data set [6]. Also, the Vmax in [7] stood at 1.62 µmol/min/mg; in data set [8], 5.68 µmol/min/mg; in [9], 2.28 µmol/min/mg. Further, the kcat was determined as 1.62 ± 0.111 s⁻¹ in data set [1]; 1.93 ± 0.0658 s⁻¹ in data set [2]; 2.15 ± 0.119 s⁻¹ in data set [3]; 6.67 ± 0.165 s⁻¹ in data set [4]; 4.94 ± 0.395 s⁻¹ in data set [5]; 5.74 ± 0.129 s⁻¹ in data set [6]. For the same protein, the kcat worked out at 1.05 ± 0.124 s⁻¹ in data set [7], 3.68 ± 0.13 s⁻¹ in data set [8] and 1.48 ± 0.157 s⁻¹ in [9].

B2: Synechococcus sp. WH7803 'large' MazG (Syn MazG) (Synechococcus sp. WH 7803) (protein)
chain: MAQHATVPGDQDPLRYLESVVARLRDPVNGCPWDLEQTHASLVPYVLEEAHEVADAIRHGDDRHLKEELGDLLLQVVLHARIGAENNRFDLDAIATTISDKLIRRHPHVFGEARAENTEAVRLSWEAIKAAERAEQSGGEQSSSPLSDQLAGKVRGQPALAAAMTISRKAAKAGFEWDAIDGVWGKVQEELDELKEAIASGDRRHAQDELGDVLFTLVNVARWCGLDPEEGLAATNQRFLDRFSRVESALNGDLQGRSIQELEALWQQAKAAIRAENTQSS
notes: recombinant, over-expressed in E. coli and purified (tag details only in supplement); two MazG domains
Turning to B2, the Km is 1.2 (±0.21) mM in [10]; 1.33 (±0.3) mM in data set [11]; 0.85 (±0.07) mM in [12]; 0.26 (±0.02) mM in data set [13]; 0.14 (±0.03) mM in data set [14]; 0.3 (±0.09) mM in data set [15]. In data set [16], the Km was 0.63 (±0.23) mM. The Vmax came to 1.96 µmol/min/mg in [10]; 3.02 µmol/min/mg in [11]; 0.64 µmol/min/mg in [12]; 0.7 µmol/min/mg in data set [13]; 3.81 µmol/min/mg in data set [14]; 1.8 µmol/min/mg in data set [15]. Besides, in [16], the Vmax was 2.55 µmol/min/mg. Also, the kcat in data set [10] was 2.3 ± 0.164 s⁻¹; in [11], 3.68 ± 0.1 s⁻¹; in [12], 0.753 ± 0.293 s⁻¹; in [13] it was 0.824 ± 0.153 s⁻¹; in data set [14] it was 4.46 ± 0.417 s⁻¹; in data set [15], 2.1 ± 0.323 s⁻¹. Further, the kcat in [16] turned out to be 2.99 ± 0.407 s⁻¹.

The values are drawn from article PMC6850273, “Cyanophage MazG is a pyrophosphohydrolase but unable to hydrolyse magic spot nucleotides” (Environmental Microbiology Reports, 2019).
